Square brackets hold non-standard residues; d marks the D form. Ends that are not written are not given here. fluorescein = fluorescein label on the N-terminus; pT = C[C@@H](OP(=O)(O)O)[C@H](N)C(=O)O
Target: T1, GST-TOPBP1(BRCT0-2 1-290) WT (human, UniProt Q92547 1-290)
T1 construct: TOPBP1, human, residues 1-290 (BRCT0-2); expressed from pGEX-6P-1, eluted with glutathione, no cleavage described; also called TOPBP1 BRCT0-1-2; TOPBP1 BRCT 0-1-2 WT; source: E. coli BL21(DE3), purified (HiTrap GST, Superdex 200)
Assay: fluorescence polarisation; 100 nM fluorescein-labelled SLX4 peptide, increasing concentrations of TOPBP1 BRCT fragment; room temperature; 25 mM HEPES pH 7.5, 150 mM NaCl, 1 mM EDTA, 0.25 mM TCEP, 0.002% Tween 20; single site with non-specific component
Details: both partners purified

B1: Flu-SLX4_pT1260 (peptide)
peptide: fluorescein-GYGTSWLVPA[pT]PLASRSR
modifications: also: phosphothreonine at Thr1260 (position 4 or 11)
notes: residues before the SLX4 stretch, not SLX4; SLX4, human, amino acids 1253-1267, pT1260; also called fluorescein tagged SLX4 pT1260-containing peptide; pThr1260 SLX4 peptide; source: synthetic peptide
binding result: binds

Source: publication PMC12661054, “The CIP2A-TOPBP1 axis facilitates mitotic DNA repair via MiDAS and MMEJ” (Nature Communications, 2025)
